Measurements: patent US9677053B2, “Laccases for bio-bleaching” (BASF ENZYMES LLC, priority 2006, dated 2017)

Assays:
[1] = mediator ability to delignify pulp
[2] = HBT oxidation, oxygen consumption; type: biochemical; details: 1 mM HBT, pH 8, 22° C.
Description: (§1) The ability of BD22865 (SEQ ID NO: 4) to oxidize mediators with higher redox potentials such as violuric acid and 1-hydroxybenzotriazole (HBT) at pH 8 at room temperature was also tested. Briefly, 50 μL of BD22865 culture supernatant isolated as described in Example 2 was incubated with 950 μL violuric acid (1 mM in Britton-Robinson Buffer at pH 8) or HBT (1 mM in Britton-Robinson Buffer) at pH 8 at 22° C. in an OXYTHERM™ oxygen measurement instrument. Oxygen consumption was measured as described above. SEQ ID NO:4 (BD22865) was able to oxidize both violuric acid and HBT with oxygen consumption rates of 150 nmol/min/mg and 100 nmol/min/mg, respectively under the conditions described herein.

[3] = TEMPO oxidation, oxygen consumption (OXYTHERM); type: biochemical; details: 1 mM TEMPO, pH 8, 22° C., culture supernatant
Description: Briefly, 50 μL of test culture supernatants isolated as described in Example 2 was incubated with 950 uL TEMPO (1 mM in Britton-Robinson Buffer at pH 8) at 22° C. in an OXYTHERM™ oxygen measurement instrument (Hansatech, England). Oxygen consumption was measured over time according to the manufacturer's instructions.

[4] = violuric acid oxidation, oxygen consumption; type: biochemical; details: 1 mM violuric acid, pH 8, 22° C.
Description: as §1

[5] = delignification of wood pulp with laccase and mediator, handsheet brightness; details: with Mediator 71 (50 mg per 1 gram softwood pulp), borate buffer pH 8, 22° C., then NaOH/H2O2 extraction at 75° C.
Description: Laccases BD22449 and BD22865, identified and characterized in Examples 1-5 above were assayed for wood pulp delignification with Mediator 71. Briefly, 1 gram of softwood pulp was treated with 3 mL of BD22449 or BD22865 culture supernatant isolated as described in Example 2 with 50 mg of Mediator 71 at 5% consistency in borate buffer pH 8 at 22° C. Laccase/mediator treatment was followed by extraction stage with 2.5% NaOH, 2% H2O2 at 75° C. Handsheets were made out of the treated pulp and brightness increase due to the laccase/mediator treatment was measured using Brightmeter Micro S-5 (Technidyne Corp. New Albany, Ind., USA). Brightness increase obtained with BD22449 and BD22865 with Mediator 71 was −30% (data not shown).

[6] = oxidation of Mediator 71 at pH 8, oxygen electrode; type: biochemical; details: for specific activity, oxidation of Mediator 71: 1 mM Mediator 71, pH 8, room temperature, laccase preparation, not purified protein
Description: BD22449 (SEQ ID NO:2), BD22865 (SEQ ID NO:4) and Trametes versicolor laccase (used as a control) were assayed for their ability to oxidize Mediator 71 at pH 8 using oxygen electrode. Briefly, 50 μL of BD22449 or BD22865 culture supernatant isolated as described in Example 2 was incubated with 950 μL Mediator 71 dissolved in Britton-Robinson Buffer to a final concentration of 1 mM at pH 8. The consumption of oxygen was measured at room temperature in an OXYTHERM™ oxygen measurement instrument over time as described above.

[7] = pHopt for oxidation of Mediator 71; type: biochemical; details: 1 mM Mediator 71, pH 5-10, room temperature, 20 min
Description: Next, the pHopt for the catalysis of the oxidation of Mediator 71 was determined for each laccase. […] of BD22449 or BD22865 culture supernatant isolated as described in Example 2 was incubated with […] Mediator 71 dissolved in Britton-Robinson Buffer to a final concentration of 1 mM at pH 5, 6, 7, 8, 9, or 10. The consumption of oxygen over 20 min at room temperature was determined in an OXYTHERM™ oxygen measurement instrument over time as described above. […] By contrast, the Trametes laccase had no activity on Mediator 71 at pH 7 or above.

[8] = thermotolerance, residual activity on ABTS; type: biochemical; details: 1 hour
Description: Laccases BD22449 and BD22865, identified and characterized in Examples 1-5 above were assayed for thermotolerance. Briefly, each laccases was tested at 50° C., 60° C. and 70° C. for 0-60 minutes wherein the residual activity on ABTS was measured. Supernatants from the Aspergillus cultures expressing BD22449 (SEQ ID NO:2) and BD22865 (SEQ ID NO:4) were isolated as described in Example 2. Supernatants were incubated at 50° C., 60° C. or 70° C. for 1 min, 5 min, 10 min, 30 min, and 60 min. For each time point, the oxidation of 2, 2′-azino-bis(3-ethylbenzthiazoline-6-sulfonic acid) (ABTS) by the laccase was measured using an OXYTHERM™ oxygen measurement instrument.

| brightness increase of handsheets [5] [%] | Molecule | ability to delignify pulp [1] | efficiency among mediators ([1]; pH 5 and pH 8) | HBT oxidation, oxygen consumption rate [2] [nmol/min/mg] | TEMPO oxidation, oxygen consumption rate [3] | violuric acid oxidation, oxygen consumption rate [4] [nmol/min/mg] | specific activity, oxidation of Mediator 71 [6] [nmol/min/mg] | specific activity on Mediator 71 compared to BD22449 ([6]; pH 8) | pH of optimum oxidation of Mediator 71 [7] | activity remaining after an hour at 60° C. [8] |
| --- | --- | --- | --- | --- | --- | --- | --- | --- | --- | --- |
| – | CNC(=O)N(O)c1cccc(C(F)(F)F)c1 [Mediator 71, 3-(3′-Trifluoromethylphenyl)-3-hydroxy-1-methylurea] | capable of delignifying pulp | most efficient | – | – | – | – | – | – | – |
| −30 | BD22865: laccase from Fusarium verticillioides, SEQ ID NO: 4, expressed in Aspergillus niger, tested as culture supernatant (protein, Fusarium verticillioides) MALIERVWHACVSIVAWLTMWPTSPSTSYQHPLRPNHPHTHIEDPSPGFPIFHPPPGDHEFLCEYPEMTGFVQCSIPENRECWLRHPDGREFNIHTNYENFAPKGIMRHYTLNITESWYNADGQNFTEAKLFNGEYPGPWLEACWGDTFNITVINSMKRNGTSIHWHGIRQNQTMDMDGVNGITQCPIAPGDSFSYIFNTTQYGTSWYHSHYSVQYADGLQGPITIHGPQSAPYDATKRPLLMTDWSHESAFRLLFPGSQFSNKTILLNGAGNVSHYGYTPTLPIPDNYELYFNKTPTDKPTRPKRYLLRLINTSFDSTLVFSIDNHWLQIVTSDFVPIEPYFNTSVLIGIGQRYNVIVEANPLGGDVNEIPDDGNFWIRTWVADACGIAPGGEGYEKTGILRYNHSDKALPSSQPWVNISKACSDETYTSLRPKIPWYIGPAANAQNGERFNVTFDPNAKNTPEFQEEYPVATFGLQRPGQNFRPLQINYSDPVMFHLDEPRDTYPPKWVVIPEDYTEKEWVYFVLTIEGISARTGAHPIHLHGHDFALLQQEENQTYDPSRLNLKLDNPPRRDVVLLPRNGFVVIAFKADNPGIWLMHCHIARHASEGLAMQVLERQGDSNKLFPVGSPNMIEAERVCKVWETWMDGEKDFFEGDSGI | – | – | 100 | 250 nmol/min/mg | 150 | 1350 | about twice the specific activity | 8 | about 40% |
| −30 | BD22449: laccase from Cochiobolus heterostrophus, SEQ ID NO: 2, expressed in Aspergillus niger, tested as culture supernatant (protein, listed as Cochliobolus heterostrophus) MVSSISRVVTALGLLLPTVTSSVVPHKSLAPRTPEVPWKNTGLFSGHSKRQGYETACNHGPESRGCWIDDFNIDTDMDVEWPDTGKTVKYHLTITNTTGAPDGFERPMFLINGQYPGPTITADWGDVLEITVTNGLENNGTGIHWHGLRQLGTNEQDGVNGITECPIAPGDSKLYRFKATQYGTTWYHSHYSVQYGDGIVGPLIIKGPSTANYDIDLGAFPMTDWFHATTFTVNAAAVHANGPPTADNVLVNGSMTSSFGGKYAETILTPGKSHLLRLMNVGINNYLHVGLDGHQFQVISADFTPIEPFYTDSLVLAVGQRYEVIINATEAVGNYWLRVGTGGNCDGPNANAANIRSIFRYAGAPTEDPDTTGSLPSGCYDEDVVPYAKTTVPQEMPEQLSVGFNPNWTSDVTQNQGLVQWLVNGNPMAVDLEVPTLQSVLDGNVTYGNNRHVFAVDEKHQWQYWVIQQNSSNPPLPHPIHLHGHDFYVLAQVENAVWNGDISTLKTDNPIRRDTADLPAGGYLVLAFESDNPGAWLMHCHIPFHVAAGLGVQFLERESEIKAQDGYAEMHRTCANWQSWRYKYHPNGILFPGDSGLRRRN | – | – | – | did not show TEMPO oxidation | – | 677 | – | 8 | approximately 100% |
